Measured values: US20220154204A1 (University of California, published 2022)

Molecular target: T1, nYFP-GEF1 (UniProt Q93ZY2 1-548)
T1 construct: BiFC positive control partner; also called RopGEF1; not shown: N-terminal YFP fragment (nYFP) from BiFC vector pSPYNE173
T1 sequence (looked up): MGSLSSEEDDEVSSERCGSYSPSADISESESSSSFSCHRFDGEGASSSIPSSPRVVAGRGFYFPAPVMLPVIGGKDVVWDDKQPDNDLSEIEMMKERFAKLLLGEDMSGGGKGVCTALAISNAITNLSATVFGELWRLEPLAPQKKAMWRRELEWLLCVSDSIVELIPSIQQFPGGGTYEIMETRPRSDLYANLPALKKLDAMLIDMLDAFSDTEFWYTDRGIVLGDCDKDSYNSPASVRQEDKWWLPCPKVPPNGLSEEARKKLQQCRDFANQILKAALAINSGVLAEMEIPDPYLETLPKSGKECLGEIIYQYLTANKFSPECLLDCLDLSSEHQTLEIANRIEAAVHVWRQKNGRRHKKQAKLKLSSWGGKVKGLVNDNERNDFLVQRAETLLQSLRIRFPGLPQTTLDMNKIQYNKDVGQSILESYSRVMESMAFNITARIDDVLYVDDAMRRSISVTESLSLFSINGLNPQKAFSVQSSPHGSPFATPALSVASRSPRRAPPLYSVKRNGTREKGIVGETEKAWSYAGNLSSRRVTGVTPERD
Test: BiFC in Nicotiana benthamiana leaves, positive control
Method: a, Co-immunoprecipitation experiments using transiently expressed M3Kδ6 and OST1/SnRK2.6 in Arabidopsis mesophyll cell protoplasts. OST1/SnRK2.6-GFP or GFP control co-expressed with M3Kδ6-FLAG were immunoprecipitated with GFP antibodies. Precipitated proteins were analyzed by immunoblots using GFP or FLAG antibody. b and c, BiFC analyses of nYFP-M3Kδ6 (b) or nYFP-M3Kδ7 (c) with OST1/SnRK2.6-cYFP, SnRK2.2-cYFP, 2.4-cYFP and 2.10-cYFP infiltrated in 6-week-old Nicotiana benthamiana leaves. nYFP-GEF1/cYFP-ABI1 combination was used as a positive control. All images are at the same scale. Scale bars=50 μm. d and e, BiFC quantifications measured from maximal projections of z-stacks and normalized over an infiltration control expressing p19 only. BiFC quantifications were analyzed by one-way ANOVA followed by Tukey's tests. Confocal images were acquired using identical settings for each BiFC experiment. Means±s.e.m. (n=45).

binding result: binds
B1: cYFP-ABI1 (enzyme, UniProt P49597 1-434, looked up)
chain: MEEVSPAIAGPFRPFSETQMDFTGIRLGKGYCNNQYSNQDSENGDLMVSLPETSSCSVSGSHGSESRKVLISRINSPNLNMKESAAADIVVVDISAGDEINGSDITSEKKMISRTESRSLFEFKSVPLYGFTSICGRRPEMEDAVSTIPRFLQSSSGSMLDGRFDPQSAAHFFGVYDGHGGSQVANYCRERMHLALAEEIAKEKPMLCDGDTWLEKWKKALFNSFLRVDSEIESVAPETVGSTSVVAVVFPSHIFVANCGDSRAVLCRGKTALPLSVDHKPDREDEAARIEAAGGKVIQWNGARVFGVLAMSRSIGDRYLKPSIIPDPEVTAVKRVKEDDCLILASDGVWDVMTDEEACEMARKRILLWHKKNAVAGDASLLADERRKEGKDPAAMSAAEYLSKLAIQRGSKDNISVVVVDLKPRRKLKSKPLN
notes: BiFC positive control partner; order of tag and protein as the printed name gives it; not shown: C-terminal YFP fragment (cYFP) from BiFC vector pSPYCE(M)
